According to US9376684:

Columns and labels:
TFPI1-183-CD4 [1] = biological target: TFPI1-183-CD4 (UniProt P10646)
TFPI1-276-CD4 [2] = biological target: TFPI1-276-CD4 (UniProt P10646)
TFPI1-183-CD4 [3] = biological target: TFPI1-183-CD4 (UniProt P10646); assay: flow cytometry, DAP.3 transfectants incubated with increasing FXa
TFPI1-276-CD4 [4] = biological target: TFPI1-276-CD4 (UniProt P10646); assay: as above
[5] = tested on: native full-length hirudin (Biopharm)
[6] = tested on: synthetic C-terminal hirudin dodecapeptide analog comprising hirudin residues 53-64, with sulfato-Tyr64 (American Diagnostica)

FXa
proteolytic activity of FXa (chromogenic substrate S-2765; time required to reach OD405=0.1) (TFPI1-183-CD4 [1]): FXa activity was inhibited by expressed TFPI-CD4 in a dose dependent manner with the greatest inhibition noted when low concentrations of FXa (0.16 nM) were added | proteolytic activity of FXa (chromogenic substrate S-2765; time required to reach OD405=0.1) (TFPI1-276-CD4 [2]): FXa activity was inhibited by expressed TFPI-CD4 in a dose dependent manner with the greatest inhibition noted when low concentrations of FXa (0.16 nM) were added

FXa (from UniProt P00742 41-488) (enzyme)
FXa concentration at which significant binding was detected (TFPI1-183-CD4 [3]): 0.02 nM | FXa concentration at which significant binding was detected (TFPI1-276-CD4 [4]): 0.02 nM

thrombin
thrombin-dependent catalytic activity (cleavage of chromogenic substrate S-2238) [5]: no chromogenic conversion was observed with thrombin incubated with PPACK-HCl or hirudin as compared to thrombin incubated without inhibitor | thrombin-dependent catalytic activity (cleavage of chromogenic substrate S-2238) [6]: the dodecapeptide did not influence thrombin-dependent catalytic activity as measured by cleavage of S-2238
